Data taken from patent US20160257732A1 (published 2016).
Changes are numbered by the printed parent chain.

B1: Antibody 8 (antibody, V domains shown)
VH: QVQLQQSGPGLVKPSQTLSLTCVISGDTVSSNRATWNWMRQSPLRGLEWLGRTYYRSKWYNDYAVSVKSRVVINPDTSKNQVSLQLNTVTPDDSGVYFCARGGHITVFGVNIDAFDIWGLGTKVTVSS
VL: DIQMTQSPSSLSASVGDRVTISCRASQRLNSYLHWYQQTPGQAPKLLIYATSTLQSGVSPRFSGSGSGTDFTLTISSLQPEDVATYYCQLSRTFGHGTKVEIK
B2: Antibody 5 (antibody, V domains shown)
VH: QVQLQQSGPGLVKPSQTLSLTCAISGDRVSSNSAVWNWIRQSPSRGLEWLGRTYYRSKWYYDYAESVKSRIVIDPDTSKNQVSLQLNSVTPEDSAIYYCARGGHITVFGLNIDAYDIWGQGAMVTVSS
VL: DIQMTQSPSSLSASVGDRVTISCRAQSLSSYLHWYQQKPGQPPKLLIYAATTLQSGVPSRFSGSGSGTDFTLTISTFQAEDVATYYCQQSRTFGQGTKVEIK
B3: Antibody 6 (antibody, V domains shown)
VH: B2 VH with V107E
VL: B2 VL
B4: Antibody 10 (antibody, V domains shown)
VH: QVQLQQSGPGLVKPSQTLSLTCAISGDSVSSNSATWNWIRQSPSRGLEWLGRTYYRSKWYNDYADFLKRRITINPDTSNNEVSLRLTSVTPDDTALYYCARGGHITVFGVNIDAFDVWGQGTMVTVSS
VL: DIQMTQSPSSLSASVGDRITISCRTSQSLRSYLHWYQQKPGKAPKLLIYASSTLQSGVPSRFSGSGSGTDFTLTISNLQPEDFATYYCQLSRTFGQGTKVEIK

biological target: HA of ca A/Brit. Columbia/CN-6/04 (H7N3-LP) (influenza A virus); assay: cell-based or functional assay

| Binder | Neutralization IC50, H7-BC04 [µg/mL] |
| --- | --- |
| B1 | 14.7 |
| B2 | 5.35 |
| B3 | > 50 |
| B4 | 3.59 |

biological target: HA of ca A/Netherlands/219/03 (H7N7) (influenza A virus); assay: cell-based or functional assay

| Binder | Neutralization IC50, H7-NLD03 [µg/mL] |
| --- | --- |
| B1 | 12.8 |
| B2 | 4.14 |
| B3 | > 50 |
| B4 | 3.8 |

biological target: HA of ca A/Perth/16/09 (H3N2) (influenza A virus); assay: cell-based or functional assay

| Binder | Neutralization IC50, H3-Perth09 [µg/mL] |
| --- | --- |
| B1 | > 50 |
| B2 | 2.22 |
| B3 | 5.03 |
| B4 | 2.56 |

biological target: HA of A/New Jersey/8/76 (H1N1) (influenza A virus); assay: cell-based or functional assay

| Binder | Neutralization IC50, H1-NJ76 [µg/mL] |
| --- | --- |
| B1 | 2.26 |
| B2 | 1.64 |
| B3 | 2.6 |
| B4 | 0.15 |

biological target: HA of ca A/Sydney/5/97 (H3N2) (influenza A virus); assay: cell-based or functional assay

| Binder | Neutralization IC50, H3-Syd97 [µg/mL] |
| --- | --- |
| B1 | > 50 |
| B2 | 3.03 |
| B3 | 6.54 |
| B4 | 9.29 |

biological target: HA of ca A/Vietnam/1203/04 (H5N1) (influenza A virus); assay: cell-based or functional assay

| Binder | Neutralization IC50, H5-VM04 [µg/mL] |
| --- | --- |
| B1 | 3.9 |
| B2 | 2.6 |
| B3 | 8.87 |
| B4 | 2.21 |

biological target: HA of ca A/Beijing/262/95 (H1N1) (influenza A virus); assay: cell-based or functional assay

| Binder | Neutralization IC50, H1-BJ95 [µg/mL] |
| --- | --- |
| B1 | 10.6 |
| B2 | 5.06 |
| B3 | 20.9 |
| B4 | 4.46 |

biological target: HA of A/Wisconsin/67/05 (H3N2) (influenza A virus); assay: cell-based or functional assay

| Binder | Neutralization IC50, H3-WI05 [µg/mL] |
| --- | --- |
| B1 | > 50 |
| B2 | 2.83 |
| B3 | 6.76 |
| B4 | 4.46 |

biological target: HA of ca A/chicken/Hong Kong/G9/97 (H9N2) (influenza A virus); assay: cell-based or functional assay

| Binder | Neutralization IC50, H9-HK97 [µg/mL] |
| --- | --- |
| B1 | 26.4 |
| B2 | 2.43 |
| B3 | 16.5 |
| B4 | 1.76 |

biological target: HA of A/Wyoming/03/03 (H3N2) (influenza A virus); assay: cell-based or functional assay

| Binder | Neutralization IC50, H3-Wy03 [µg/mL] |
| --- | --- |
| B1 | > 50 |
| B2 | 0.77 |
| B3 | 4.7 |
| B4 | 1.52 |

biological target: HA of ca A/New Caledonia/20/99 (H1N1) (influenza A virus); assay: cell-based or functional assay

| Binder | Neutralization IC50, H1-Ncal99 [µg/mL] |
| --- | --- |
| B1 | 2.06 |
| B2 | 0.85 |
| B3 | 3 |
| B4 | 1.26 |

biological target: HA of ca A/swine/Missouri/06 (H2N3) (influenza A virus); assay: cell-based or functional assay

| Binder | Neutralization IC50, H2-MO06 [µg/mL] |
| --- | --- |
| B1 | 2.62 |
| B2 | 2.38 |
| B3 | 2.9 |
| B4 | 1.04 |

biological target: HA of ca A/Panama/2007/99 (H3N2) (influenza A virus); assay: cell-based or functional assay

| Binder | Neutralization IC50, H3-Pa99 [µg/mL] |
| --- | --- |
| B1 | > 50 |
| B2 | 16.7 |
| B3 | 25.8 |
| B4 | 18.7 |

biological target: HA of ca A/Texas/36/91 (H1N1) (influenza A virus); assay: cell-based or functional assay

| Binder | Neutralization IC50, H1-TX91 [µg/mL] |
| --- | --- |
| B1 | 0.7 |
| B2 | 0.76 |
| B3 | 2.2 |
| B4 | 0.48 |

biological target: HA of ca A/teal/Hong Kong/W312/97 (H6N1) (influenza A virus); assay: cell-based or functional assay

| Binder | Neutralization IC50, H6-HK97 [µg/mL] |
| --- | --- |
| B1 | 2.97 |
| B2 | 2.27 |
| B3 | 3.23 |
| B4 | 1.05 |

biological target: HA of A/Hong Kong/8/68 (H3N2) (influenza A virus); assay: cell-based or functional assay

| Binder | Neutralization IC50, H3-HK68 [µg/mL] |
| --- | --- |
| B1 | 2.82 |
| B2 | 0.39 |
| B3 | 2.04 |
| B4 | 0.85 |

biological target: HA of A/Fort Monmouth/1/47 (H1N1) (influenza A virus); assay: cell-based or functional assay

| Binder | Neutralization IC50, H1-FM47 [µg/mL] |
| --- | --- |
| B1 | 1.37 |
| B2 | 0.86 |
| B3 | 3.04 |
| B4 | 1.11 |

biological target: HA of A/Kawasaki/9/86 (H1N1) (influenza A virus); assay: cell-based or functional assay

| Binder | Neutralization IC50, H1-Kaw86 [µg/mL] |
| --- | --- |
| B1 | 2.11 |
| B2 | 1.01 |
| B3 | 3.51 |
| B4 | 1.62 |

biological target: HA of A/Victoria/3/75 (H3N2) (influenza A virus); assay: cell-based or functional assay

| Binder | Neutralization IC50, H3-Vic75 [µg/mL] |
| --- | --- |
| B1 | 3.83 |
| B2 | 0.57 |
| B3 | 1.09 |
| B4 | 0.91 |

biological target: HA of ca A/Hong Kong/213/03 (H5N1) (influenza A virus); assay: cell-based or functional assay

| Binder | Neutralization IC50, H5-HK03 [µg/mL] |
| --- | --- |
| B1 | 1.82 |
| B2 | 1.18 |
| B3 | 10.4 |
| B4 | 1.6 |
